Data from the MegaScale stability set (Tsuboyama et al. 2023).

B1: 2M8U (parent)
chain: TKAQVIEAFKVFDRDGNGYVTVDYLRKVLNELGDMMPADEIEEMIYEADPQNSGYVQYETFVGMLFL

Variants of: B1
Test: folding stability dG (cDNA display proteolysis); higher = more stable
Conditions: PBS, room temperature

Folding stability dG [kcal/mol] of substitutions, site by site:
Y46: V 3.5 | G 3.44 | I 3.47 | E 3.36 | M 3.58 | R 3.66 | K 3.64 | S 3.52 | L 3.44 | A 3.52 | N 3.57 | D 3.29 | Q 3.66 | P 2.82 | C 3.46 | T 3.62 | H 3.62 | W 3.56 | F 3.55
N52: C 3.42 | I 3.03 | Y 3.31 | V 3.26 | E 3.38 | H 3.46 | P 2.43 | G 3.51 | S 3.57 | D 3.37 | R 3.57 | A 3.38 | M 3.42 | K 3.4 | T 3.32 | F 3.52 | W 3.1 | Q 3.47 | L 3.36
G54: N 2.9 | F 2.89 | C 2.59 | L 2.48 | D 2.06 | M 2.59 | H 2.49 | P 2.26 | K 2.47 | S 2.48 | V 2.48 | I 2.76 | E 2.26 | R 2.56 | A 2.36 | Y 2.93 | T 2.35 | Q 2.29 | W 2.82
E47: R 4.15 | V 3.85 | F 3.75 | G 3.5 | A 3.76 | I 3.92 | D 3.49 | W 3.76 | P 2.33 | H 3.8 | L 3.88 | N 3.52 | C 3.66 | M 3.87 | S 3.71 | Y 3.51 | Q 3.96 | T 3.73 | K 4.09
D49: I 2.49 | H 2.3 | E 2.25 | S 2.93 | P 2.15 | L 2.43 | K 2.14 | M 2.71 | Q 2.53 | R 2.21 | T 2.83 | F 2.43 | G 2.36 | A 2.62 | W 2.66 | C 2.7 | N 2.75 | Y 2.67 | V 2.58
I45: M 2.88 | P 1.88 | S 2.16 | N 2.17 | T 2.13 | L 3.19 | Q 1.91 | R 2.06 | V 3 | G 2.2 | K 2.41 | H 2.08 | W 2.6 | Y 2.5
Y55: V 3.44 | Q 3.48 | K 3.25 | R 3.37 | T 3.11 | A 2.82 | E 3.05 | S 3.25 | W 3.55 | I 3.37 | F 3.35 | H 3.22 | D 2.22 | P 1.77 | N 3.16 | L 3.35 | C 3.44 | G 2.16 | M 3.51
E59: Y 3.82 | I 3.41 | M 3.93 | L 3.47 | G 2.76 | N 2.91 | T 3.12 | W 3.37 | F 3.54 | C 3.25 | D 2.99 | H 3.24 | V 3.68 | P 2.47 | R 3.06 | A 3.15 | Q 3.11 | S 3.05 | K 3.23
Q51: L 3.53 | F 3.58 | S 3.49 | P 2.52 | N 3.46 | K 3.45 | C 3.71 | H 3.54 | T 3.56 | A 3.47 | W 3.49 | M 3.49 | R 3.3 | V 3.34 | D 3.56 | E 3.48 | Y 3.62 | G 3.43 | I 3.31
V56: Y 2.29 | R 2.24 | P 1.86 | C 2.17 | A 2.7 | S 2.17 | H 2.04 | E 2.33 | N 1.99 | F 2.62 | L 3.07 | I 3.69 | T 2.14 | D 2.39 | G 2.62 | K 1.78 | W 2.49 | Q 1.96 | M 2.55
Y58: A 2.11 | K 1.56 | I 3.25 | P 1.71 | W 3.45 | D 1.3 | F 2.81 | G 1.62 | L 2.51 | H 1.99 | S 2.04 | R 1.77 | E 1.4 | T 2.02 | V 2.67 | C 2.07 | M 2.46 | N 1.27 | Q 1.77
T60: C 3.43 | A 3.63 | E 3.61 | W 3.58 | P 3.52 | Q 3.55 | M 3.44 | K 3.72 | H 3.66 | I 3.58 | D 3.42 | F 3.32 | S 3.6 | L 3.72 | V 3.31 | Y 3.43 | R 3.68
A48: R 2.9 | E 2.78 | M 3.28 | N 3.44 | I 3.33 | C 3.84 | Q 3.37 | D 2.1 | S 3.53 | V 3.28 | Y 3.48 | K 2.63 | G 2.64 | F 3.44 | L 3.45 | T 3.33 | H 3.68 | W 3.34 | P 2.25
P50: I 3.23 | R 3.38 | C 3.11 | Y 3.06 | H 3.07 | W 3.39 | Q 3.25 | E 2.89 | T 3.12 | A 3.3 | D 2.9 | L 3.21 | G 3 | S 3.29 | V 2.99 | M 3.05 | N 3.05 | F 3.05 | K 3.39
F61: G 0.903 | D 0.727 | N 1.32 | H 1.1 | L 2.65 | R 1.29 | E 0.86 | V 3.46 | T 1.87 | P 0.783 | Y 2.17 | A 2.41 | S 1.33 | W 2.62 | C 2.13 | M 2.31 | I 3.6 | K 1.35 | Q 1.17
Q57: I 2.96 | V 3.1 | N 3.61 | F 3.62 | R 3.13 | S 2.71 | M 3.27 | C 3.25 | L 3.08 | Y 3.51 | P 2.64 | A 3.31 | G 2.69 | E 3.56 | H 3.85 | W 3.18 | T 2.41 | K 3.2 | D 3.25
V62: I 3.29 | H 1.7 | A 3.15 | Q 1.94 | F 2.15 | N 1.68 | M 2.67 | R 1.93 | W 2.11 | G 1.93 | E 1.66 | T 3 | P 1.22 | D 1.28 | S 2.36 | L 2.76 | C 2.48 | K 1.97
S53: P 2.4 | C 3.18 | A 3.19 | N 3.26 | Y 3.2 | H 3.11 | D 3.02 | V 3.15 | M 3.23 | F 3.16 | L 3.2 | T 3.49 | Q 3.28 | I 3.21 | K 3.39 | R 3.35 | W 3.22 | E 3.09 | G 2.94
